Experimental findings from doi:10.1101/2023.11.22.568361 (bioRxiv, 2023) are described below.

This series deals with the molecule itself. Put plainly: AUC.

On to MAGNGGDAALALLLLDRLNQLESKMSGKGQQQQGQTV [isolated LRS peptide (N:210–246)], for which the binding result is recorded as “binds”.
